Experimental data from patent US20240102094A1 (Amgen, published 2024).

Columns and labels:
[1] = biological target: T1, mTREM2 expressed with mDAP12 on HEK293 cells (mouse, UniProt Q99NH8 19-227); experiment: flow cytometry on HEK293 cells expressing mTREM2 and mDAP12, Geomean Fold (S/B) against antibody concentration
T1 construct: whole, on cells
T1 sequence (looked up): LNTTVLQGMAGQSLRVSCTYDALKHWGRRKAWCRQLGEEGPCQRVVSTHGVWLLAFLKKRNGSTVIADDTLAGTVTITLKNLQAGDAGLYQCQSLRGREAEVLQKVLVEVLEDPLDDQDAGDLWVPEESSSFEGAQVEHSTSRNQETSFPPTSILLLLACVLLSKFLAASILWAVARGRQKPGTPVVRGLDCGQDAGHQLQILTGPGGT

[2] = biological target: T2, human TREM2, common variant, expressed on cells (human, UniProt Q9NZC2 19-230); experiment: cell-based or functional assay
T2 sequence: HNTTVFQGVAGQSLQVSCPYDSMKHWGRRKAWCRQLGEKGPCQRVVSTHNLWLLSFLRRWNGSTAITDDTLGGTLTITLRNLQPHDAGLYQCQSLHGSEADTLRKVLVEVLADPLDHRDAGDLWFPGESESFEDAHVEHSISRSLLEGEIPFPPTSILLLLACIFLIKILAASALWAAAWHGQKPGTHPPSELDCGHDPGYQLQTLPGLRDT

[3] = biological target: T3, human TREM2 R47H variant, expressed on cells (human, UniProt Q9NZC2 19-230); experiment: flow cytometry on bone marrow-derived macrophages from TREM2R47H mice, detection with anti-hIgG Fc-PE
T3 construct: On BMMs from TREM2R47H transgenic mice or on 2B4 NFAT:GFP reporter cells with DAP12; also called hTREM2R47H
T3 chain: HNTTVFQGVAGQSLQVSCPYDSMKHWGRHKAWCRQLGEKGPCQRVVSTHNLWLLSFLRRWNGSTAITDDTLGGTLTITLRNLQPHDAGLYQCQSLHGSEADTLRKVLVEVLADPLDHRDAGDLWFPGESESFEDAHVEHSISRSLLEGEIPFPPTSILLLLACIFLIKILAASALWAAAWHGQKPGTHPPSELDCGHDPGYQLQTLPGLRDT
Excerpt: An anti-hTREM1 antibody and an isotype-matched hIgG2 control antibody were used as controls. […] Dead cells were excluded by DAPI staining.

[4] = biological target: T4, recombinant hTREM2:GSS:Flag:6xHis (human, UniProt Q9NZC2 19-174, minimally biotinylated (0.3-0.4 biotin/mol) when immobilised on streptavidin sensors); experiment: Octet BLI; biotinylated hTREM2:GSS:Flag:6xHis on streptavidin sensors, Fab dilution series 30, 10, 3.3 nM, global 1:1 fit; Fab, not IgG; biotinylated hTREM2 on streptavidin sensors
T4 construct: also called hTREM2-His; purified human TREM2; not shown: Flag tag

| Binder | binding result [1] | EC50 of pSyk induction in HEK293 cells expressing human TREM2 and DAP12 (clone G13) [2] | EC50 of pSyk induction in human monocyte-derived macrophages (hMacs) [2] | binding result [3] | Kd [4] |
| --- | --- | --- | --- | --- | --- |
| hT2AB (fully human anti-human TREM2 agonistic monoclonal antibody, effectorless hIgG1) (antibody, V domains shown, also called hT2AB IgG1; anti-human TREM2 mAb hT2AB) VH: EVQLVQSGAEVKKPGESLKISCKGSGYSFTSYWIGWVRQMPGKGLEWMGIIYPGDADARYSPSFQGQVTISADKSISTAYLQWSSLKASDTAMYFCARRRQGIFGDALDFWGQGTLVTVSS VL: EIVMTQSPATLSVSPGERATLSCRASQSVSSNLAWFQQKPGQAPRLLIYGASTRATGIPARFSGSGSGTEFTLTISSLQPEDFAVYYCLQDNNFPPTFGQGTKVDIKR | no binding (tested: 5 ug/mL) | 222 pM | 166 pM | binds |  |
| hT2AB Fab (monomeric antigen-binding fragment of hT2AB) (Fab, V domains shown, also called hT2AB Fab protein) VH: EVQLVQSGAEVKKPGESLKISCKGSGYSFTSYWIGWVRQMPGKGLEWMGIIYPGDADARYSPSFQGQVTISADKSISTAYLQWSSLKASDTAMYFCARRRQGIFGDALDFWGQGTLVTVSS VL: EIVMTQSPATLSVSPGERATLSCRASQSVSSNLAWFQQKPGQAPRLLIYGASTRATGIPARFSGSGSGTEFTLTISSLQPEDFAVYYCLQDNNFPPTFGQGTKVDIK |  |  |  |  | 50 nM |
